In the Immune Epitope Database (IEDB):
pKd: −log10 of the molar value. Values belong to the sequence of their own block, whether it stands above or below them.

Columns and labels:
HLA-A*02:03 = experiment: IEDB peptide-MHC binding, purified MHC/direct/fluorescence; filed as Kd, often an IC50 or EC50 that approximates it; ≥ and ≤ were set here for values at or beyond the usual limits of such assays
HLA-B*46:01 = experiment: as above
HLA-A*02:12 = experiment: as above
HLA-B*15:17 = experiment: as above
HLA-A*02:19 = experiment: as above
HLA-A*03:01 = experiment: as above
HLA-B*39:01 = experiment: as above
HLA-A*69:01 = experiment: as above
HLA-A*02:16 = experiment: as above
HLA-B*27:03 = experiment: as above
HLA-B*48:01 = experiment: IEDB peptide-MHC binding, purified MHC/competitive/fluorescence; filed as Kd, often an IC50 or EC50 that approximates it; ≥ and ≤ were set here for values at or beyond the usual limits of such assays
HLA-A*30:01 = experiment: as above; details: source organism: Influenza A virus (A/X-31(H3N2))
HLA-B*40:01 = experiment: IEDB peptide-MHC binding, purified MHC/direct/fluorescence; filed as Kd, often an IC50 or EC50 that approximates it; ≥ and ≤ were set here for values at or beyond the usual limits of such assays; details: source organism: Influenza A virus (A/duck/Vietnam/15/2003(H5N1))
HLA-B*08:03 = experiment: as above; details: source organism: Influenza A virus(A/swine/Shandong/fZC/2003(H9N2))
HLA-B*57:01 = experiment: as above
HLA-B*18:01 = experiment: as above
HLA-B*15:01 = experiment: as above
HLA-A*02:01 = experiment: as above
HLA-B*58:01 = experiment: as above; details: source organism: Influenza A virus (A/duck/Vietnam/15/2003(H5N1))
HLA-A*26:01 = experiment: as above
HLA-A*01:01 = experiment: as above; details: source organism: Influenza A virus (A/duck/Vietnam/15/2003(H5N1))
HLA-B*27:05 = experiment: as above; details: source organism: Influenza A virus (A/duck/Vietnam/15/2003(H5N1))
HLA-B*07:02 = experiment: as above; details: source organism: Influenza A virus (A/duck/Vietnam/15/2003(H5N1))
HLA-A*68:02 = experiment: as above; details: source organism: Influenza A virus (A/duck/Vietnam/15/2003(H5N1))
HLA-A*29:02 = experiment: as above; details: source organism: Bacillus anthracis str. 'Ames Ancestor'
HLA-B*51:01 = experiment: as above; details: source organism: Bacillus anthracis str. 'Ames Ancestor'
HLA-A*24:03 = experiment: as above; details: source organism: Bacillus anthracis str. 'Ames Ancestor'
HLA-A*02:11 = experiment: as above; details: source organism: Bacillus anthracis str. 'Ames Ancestor'
[1] = source organism: Encephalitozoon cuniculi GB-M1
[2] = source organism: Influenza A virus (A/duck/Vietnam/15/2003(H5N1))
[3] = source organism: Bacillus anthracis str. 'Ames Ancestor'

pKd (HLA-A*02:03; [1]): ≤ 4.70
pKd (HLA-B*46:01; [1]): ≤ 4.70
pKd (HLA-A*02:12; [1]): ≤ 4.70
pKd (HLA-B*15:17; [1]): 6.74
pKd (HLA-A*02:19; [1]): ≤ 4.70
pKd (HLA-A*03:01; [1]): ≤ 4.70
pKd (HLA-B*39:01; [1]): ≤ 4.70
pKd (HLA-A*69:01; [1]): ≤ 4.70
pKd (HLA-A*02:16; [1]): ≤ 4.70
pKd (HLA-B*27:03; [1]): ≤ 4.70
Sequence: RNMSRIFPY

Sequence: RQVWWKALL
pKd (HLA-B*48:01; source organism: Vibrio cholerae MAK 757): 7.65

Sequence: SHEGEGIPL
pKd (HLA-A*30:01): ≤ 4.70
pKd (HLA-B*48:01; source organism: Influenza A virus (A/X-31(H3N2))): ≤ 4.70
pKd (HLA-B*40:01): ≤ 4.70
pKd (HLA-B*46:01; [2]): ≤ 4.70
pKd (HLA-B*15:17; [2]): ≤ 4.70
pKd (HLA-B*08:03): ≤ 4.70
pKd (HLA-B*57:01; [2]): ≤ 4.70
pKd (HLA-A*03:01; [2]): ≤ 4.70
pKd (HLA-B*18:01; [2]): ≤ 4.70
pKd (HLA-B*15:01; [2]): ≤ 4.70
pKd (HLA-A*02:01; [2]): ≤ 4.70
pKd (HLA-B*58:01): ≤ 4.70
pKd (HLA-B*39:01; [2]): 7.00
pKd (HLA-A*26:01; source organism: Influenza A virus(A/swine/Shandong/fZC/2003(H9N2))): ≤ 4.70
pKd (HLA-A*01:01): ≤ 4.70
pKd (HLA-B*27:05): ≤ 4.70
pKd (HLA-B*07:02): ≤ 4.70
pKd (HLA-A*68:02): ≤ 4.70
pKd (HLA-A*69:01; [2]): ≤ 4.70

Sequence: TKAGMAQYL
pKd (HLA-A*29:02): ≤ 4.70
pKd (HLA-A*02:03; [3]): ≤ 4.70
pKd (HLA-B*46:01; [3]): ≤ 4.70
pKd (HLA-A*02:12; [3]): ≤ 4.70
pKd (HLA-B*15:17; [3]): ≤ 4.70
pKd (HLA-B*51:01): ≤ 4.70
pKd (HLA-A*02:19; [3]): ≤ 4.70
pKd (HLA-B*57:01; [3]): ≤ 4.70
pKd (HLA-A*03:01; [3]): ≤ 4.70
pKd (HLA-B*18:01; [3]): ≤ 4.70
pKd (HLA-B*15:01; [3]): ≤ 4.70
pKd (HLA-A*02:01; [3]): ≤ 4.70
pKd (HLA-A*26:01; [3]): ≤ 4.70
pKd (HLA-A*24:03): ≤ 4.70
pKd (HLA-A*69:01; [3]): ≤ 4.70
pKd (HLA-A*02:16; [3]): ≤ 4.70
pKd (HLA-B*27:03; [3]): ≤ 4.70
pKd (HLA-A*02:11): ≤ 4.70
